Values quoted from earlier work as cited in patent US11414673B2, “Hypersensitive ABA receptors having modified PP2C-binding interfaces” (THE REGENTS OF THE UNIVERSITY OF CALIFORNIA, priority 2017, dated 2022).

Tested on: ABA responses
Conditions: Pizzio et al., Plant Physiol. 163, 441-455 (2013)

B1: PYL4^A194T: PYL4 ABA receptor with A194T mutation in its carboxyl terminus, described by Pizzio et al. (protein, UniProt O80920 1-207, looked up, variant A194T)
Abscisic acid receptor PYL4: MLAVHRPSSAVSDGDSVQIPMMIASFQKRFPSLSRDSTAARFHTHEVGPNQCCSAVIQEISAPISTVWSVVRRFDNPQAYKHFLKSCSVIGGDGDNVGSLRQVHVVSGLPAASSTERLDILDDERHVISFSVVGGDHRLSNYRSVTTLHPSPISGTVVVESYVVDVPPGNTKEETCDFVDVIVRCNLQSLAKITENTAAESKKKMSL
ABA concentration needed to elicit measured ABA responses, in comparison to wild type PYL4: requires lower concentrations of ABA
